Patent US6906179 (GENERAL HOSPITAL, dated 2005)
One block for each binder: values may come before it.

B2: LexA-Smad1 (full length Smad1 fused in frame to the LexA DNA binding domain (1-202) in pEG202) (other)
chain: MKALTARQQEVFDLIRDHISQTGMPPTRAEIAQRLGFRSPNAAEEHLKALARKGVIEIVSGASRGIRLLQEEEEGLPLVGRVAAGEPLLAQQHIEGHYQVDPSLFKPNADFLLRVSGMSMKDIGIMDGDLLAVHKTQDVRNGQVVVARIDDEVTVKRLKKQGNKVELLPENSEFKPIVVDLRQQSFTIEGLAVGVIRNGDWLMNVTSLFSFTSPAVKRLLGWKQGDEEEKWAEKAVDALVKKLKKKKGAMEELEKALSCPGQPSNCVTIPRSLDGRLQVSHRKGLPHVIYCRVWRWPDLQSHHELKPLECCEFPFGSKQKEVCINPYHYKRVESPVLPPVLVPRHSEYNPQHSLLAQFRNLGQNEPHMPLNATFPDSFQQPNSHPFPHSPNSSYPNSPGSSSSTYPHSPTSSDPGSPFQMPADTPPPAYLPPEDPMTQDGSQPMDTNMMAPPLPSEINRGDVQAVAYEEPKHWCSIVYYELNNRVGEAFHASSTSVLVDGFTDPSNNKNRFCLGLLSNVNRNSTIENTRRHIGKGVHLYYVGGEVYAECLSDSSIFVQSRNCNYHHGFHPTTVCKIPSGCSLKIFNNQEFAQLLAQSVNHGFETVYELTKMCTIRMSFVKGWGAEYHRQDVTSTPCWIEIHLHGPLQWLDKVLTQMGSPHNPISSVS
notes: also called Smad1pEG202; full length Smad1 bait
B4: Smad3N (aa 1-144) (other, UniProt P84022 1-144, looked up)
chain: MSSILPFTPPIVKRLLGWKKGEQNGQEEKWCEKAVKSLVKKLKKTGQLDELEKAITTQNVNTKCITIPRSLDGRLQVSHRKGLPHVIYCRLWRWPDLHSHHELRAMELCEFAFNMKKDEVCVNPYHYQRVETPVLPPVLVPRHT
notes: range 1-144; also called N-terminal MH1 domain of Smad3

Legend:
[1] = biological target: T1, Uba 80 (ubiquitin fusion protein), clones S1+36 and S1+38 (human, UniProt P62979 1-156); test: list of S1+12 interactors; method not detailed
[2] = biological target: the molecule itself; test: list of S1+12 interactors; method not detailed
HsN3 = biological target: T2, HsN3 (human, UniProt P28070 1-264, limits assumed); test: list of HsN3 interactors; method not detailed
T2 construct: also called β subunit of 20S proteasome; untagged HsN3 protein
T2 sequence (P28070 whole entry): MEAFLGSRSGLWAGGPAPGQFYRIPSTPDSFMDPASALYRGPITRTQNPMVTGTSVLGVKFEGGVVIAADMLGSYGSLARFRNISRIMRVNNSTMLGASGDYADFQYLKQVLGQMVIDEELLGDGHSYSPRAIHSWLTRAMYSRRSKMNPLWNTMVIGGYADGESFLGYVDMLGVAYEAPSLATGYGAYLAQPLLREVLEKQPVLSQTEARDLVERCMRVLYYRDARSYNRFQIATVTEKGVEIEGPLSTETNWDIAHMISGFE

[3] = biological target: B2; test: yeast two-hybrid; list of Smad1 interactors
Source text: (§1) From the pooled stock of the transformants, ten million cells are screened on U^-H^-W^-L^- galactose plates containing X-gal. Only those that form blue colonies are picked as candidate positives. […] Methods of sequencing employ such enzymes as the Klenow fragment of DNA polymerase I, Sequenase® (US Biochemical Corp, Cleveland, Ohio), Taq polymerase (Perkin Elmer, Norwalk, Conn.), thermostable T7 polymerase (Amersham, Chicago, Ill.), or combinations of recombinant polymerases and proofreading exonucleases such as the ELONGASE Amplification System (Gibco BRL, Gaithersburg, Md.). Preferably, the process is automated with machines such as the Hamilton Micro Lab 2200 (Hamilton, Reno Nev.), Peltier Thermal Cycler (PTC200; MJ Research, Watertown, Mass.) and the ABI 377 DNA sequencers (Perkin Elmer). […] The transformants are first streaked onto a master plate, then replicated onto two testing plates: U^-H^-W^- glucose plates with X-gal; U^-H^-W^- HW galactose/raffinose plates with X-gal.

[4] = biological target: T1, Uba 80 (ubiquitin fusion protein), …; test: yeast two-hybrid screen, LexA-Smad1 bait
Source text: as §1

HEF1 M2 (aa 651-834) = biological target: T3, HEF1 M2 (aa 651-834) (human, UniProt Q14511 651-834); test: co-immunoprecipitation, transfected cells
T3 construct: range 651-834
T3 sequence (looked up): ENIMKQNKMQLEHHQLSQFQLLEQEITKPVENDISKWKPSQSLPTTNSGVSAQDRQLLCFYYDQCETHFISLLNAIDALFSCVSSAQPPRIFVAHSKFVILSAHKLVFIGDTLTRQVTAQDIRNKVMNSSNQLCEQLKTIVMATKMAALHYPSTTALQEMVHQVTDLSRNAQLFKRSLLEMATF

Smad3N (aa 1-144) = biological target: B4; test: co-immunoprecipitation, transfected cells
[5] = biological target: B2; test: yeast two-hybrid (data not shown)
[6] = biological target: T4, p105HEF1 (full length HEF1, 105 kD form) (human, UniProt Q14511 1-834, form derived from differential phosphorylation; sites not given); test: co-immunoprecipitation, transfected 293 cells
T4 construct: Transfected into 293 cells; tag not described
T4 sequence (looked up): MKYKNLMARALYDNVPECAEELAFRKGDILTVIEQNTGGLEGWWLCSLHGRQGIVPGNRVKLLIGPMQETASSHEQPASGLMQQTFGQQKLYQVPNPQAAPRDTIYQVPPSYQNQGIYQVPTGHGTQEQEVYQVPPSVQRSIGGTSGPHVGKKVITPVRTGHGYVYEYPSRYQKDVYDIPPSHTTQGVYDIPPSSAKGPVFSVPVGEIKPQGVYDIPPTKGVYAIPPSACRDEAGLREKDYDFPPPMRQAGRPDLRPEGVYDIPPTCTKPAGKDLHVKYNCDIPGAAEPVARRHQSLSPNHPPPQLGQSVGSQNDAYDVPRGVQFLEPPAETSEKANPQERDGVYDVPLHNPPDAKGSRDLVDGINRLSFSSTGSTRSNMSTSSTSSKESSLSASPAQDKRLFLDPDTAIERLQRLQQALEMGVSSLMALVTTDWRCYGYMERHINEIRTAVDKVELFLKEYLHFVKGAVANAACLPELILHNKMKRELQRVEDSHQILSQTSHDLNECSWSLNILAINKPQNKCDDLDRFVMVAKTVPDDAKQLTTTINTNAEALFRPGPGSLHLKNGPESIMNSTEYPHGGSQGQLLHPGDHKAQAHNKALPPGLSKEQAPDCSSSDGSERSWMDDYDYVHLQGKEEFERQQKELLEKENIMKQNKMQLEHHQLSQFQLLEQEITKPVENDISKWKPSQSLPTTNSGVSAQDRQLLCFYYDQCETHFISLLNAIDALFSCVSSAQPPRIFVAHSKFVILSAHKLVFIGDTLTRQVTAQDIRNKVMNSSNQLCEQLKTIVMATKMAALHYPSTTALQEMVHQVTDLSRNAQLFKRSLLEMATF

[7] = biological target: T5, p115HEF1 (full length HEF1, 115 kD form) (human, UniProt Q14511 1-834, form derived from differential phosphorylation; sites not given); test: co-immunoprecipitation, transfected 293 cells
T5 construct: Transfected into 293 cells; tag not described
T5 sequence (looked up): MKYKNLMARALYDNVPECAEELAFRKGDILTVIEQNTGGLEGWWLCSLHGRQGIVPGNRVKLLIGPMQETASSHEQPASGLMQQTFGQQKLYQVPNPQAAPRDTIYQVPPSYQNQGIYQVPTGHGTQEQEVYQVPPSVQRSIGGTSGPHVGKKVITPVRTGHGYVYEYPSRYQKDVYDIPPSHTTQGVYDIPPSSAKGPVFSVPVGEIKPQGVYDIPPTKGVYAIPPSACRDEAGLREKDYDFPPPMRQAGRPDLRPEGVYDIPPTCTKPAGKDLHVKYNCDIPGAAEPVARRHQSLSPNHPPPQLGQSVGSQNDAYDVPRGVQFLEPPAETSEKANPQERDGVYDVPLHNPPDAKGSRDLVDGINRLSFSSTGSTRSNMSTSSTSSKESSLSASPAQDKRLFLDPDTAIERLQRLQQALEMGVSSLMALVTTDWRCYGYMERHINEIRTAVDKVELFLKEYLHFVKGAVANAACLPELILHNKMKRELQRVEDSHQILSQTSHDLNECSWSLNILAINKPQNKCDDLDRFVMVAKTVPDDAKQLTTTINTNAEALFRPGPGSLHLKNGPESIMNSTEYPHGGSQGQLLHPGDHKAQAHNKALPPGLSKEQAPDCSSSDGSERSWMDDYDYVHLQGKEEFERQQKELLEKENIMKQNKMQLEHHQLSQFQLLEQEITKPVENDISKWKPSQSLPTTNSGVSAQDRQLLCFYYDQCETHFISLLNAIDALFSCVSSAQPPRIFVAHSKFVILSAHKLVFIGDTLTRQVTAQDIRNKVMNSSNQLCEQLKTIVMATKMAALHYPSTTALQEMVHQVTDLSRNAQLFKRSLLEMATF

[8] = biological target: B2; test: yeast two-hybrid screen, LexA-Smad1 bait
Source text: as §1

binding result [1]: binds
binding result (HsN3): binds
binding result [3]: binds
B1: Clone S1+12 (other)
chain: EFGTRRMMEGLDDGPDFLSEEDRGLKAINVDLQSDAALQVDISDALSERDKVKFTVHTKSSLPNFKQNEFSVVRQHEEFIWLHDSFVENEDYAGYIIPPAPPRPDFDASREKLQKLGEGEGSMTKEEFTKMKQELEAEYLAIFKKTVAMHEVFLCRVAAHPILRRDLNFHVFLEYNQDLSVRGKKKKKNSRSFGLLRQ
notes: also called sorting nexin-like protein
binding result [2]: binds

Binder: B2
binding result [4]: binds

binding result [3]: binds
B3: Clone S1+28 (other)
chain: FAVDAKALPQNKPRPLTQEEIAQRRERARQRHAEKLAAAQGQAPLEPTQDGSAIETCPKGDEPRGDEQQVESMTPKPVLQEENNQESFIAFARVFSGVARRGKKIFVLGPKYSPLEFLRRVPLCFSAPPDGLPQVPHMAYCALENLYLLMGRELEYLEEVPPGNVLGIGGLQDFVLKSATLCSLPSCPPFIPLNFEATPIVRVAVEPKHPSEMPQLVKGMKLLNQADPCVQILIQETGEHVLVTAGEVHLQRCLDDLKERFAKIHISVSEPIIPFRETITKPPKVDMVNEEIGKQQKVAVIHQMKEDQSKIPEGIQVDSDGLITITTPNKLATLSVRAMPLPEEVTQILEENSDLIRSMEQLTSSLNEGENTHMIHQKTQEKIWEFKGKLEQHLTGRRWRNIVDQIWSFGPRKCGPNILVNKSEDFQNSVWTGPADKASKEASRYRDLGNSIVSGFQLATLSGPMCEEPLMGVCFVLEKWDLSKFEEQGASDLAKEDRRKMKPVLVEMKTKSYKMAALRPLRRGHHRKENLHSLTAMDLSQDS
notes: Novel clone from the human fetal brain library; also called human homologue of yeast translocation elongation factor

Binder: B4
binding result (HEF1 M2 (aa 651-834)): no binding

binding result [3]: binds
B5: Clone S1+27 (SIP2) (other)
chain: KSSPLLIRMEESLNIVKYTAFLYNDQLIWSGLEQDDMRILYKYLTTSLFPRHIEPELAGRDSPIRAEMPGNLQHYGRFLTGPLNLNDPDAKCRFPKIFVNTDDTYEELHLIVYKAMSAAVCFMIDASVHPTLDFCRRLDSIVGPQLTVLASDICEQFNINKRMSGSEKEPQFKFIYFNHMNLAEKSTVHMRKTPSVSLTSVHPDLMKILGDINSDFTRVDEDEEIIVKAMSDYWVVGKKSDRRELYVILNQKNANLIEVNEVKKLCATQFNNIFFLD
notes: Novel clone from the human fetal brain library; also called Clone Smad1+ (S1+)27

binding result (Smad3N (aa 1-144)): no binding
B6: HEF1 M2/C (aa 695-832) (other, human, UniProt Q14511 695-832, looked up)
chain: TTNSGVSAQDRQLLCFYYDQCETHFISLLNAIDALFSCVSSAQPPRIFVAHSKFVILSAHKLVFIGDTLTRQVTAQDIRNKVMNSSNQLCEQLKTIVMATKMAALHYPSTTALQEMVHQVTDLSRNAQLFKRSLLEMA
notes: range 695-832

binding result (Smad3N (aa 1-144)): no binding
B7: HEF1 M2/N (aa 651-759) (other, human, UniProt Q14511 651-759, looked up)
chain: ENIMKQNKMQLEHHQLSQFQLLEQEITKPVENDISKWKPSQSLPTTNSGVSAQDRQLLCFYYDQCETHFISLLNAIDALFSCVSSAQPPRIFVAHSKFVILSAHKLVFI
notes: range 651-759

binding result (Smad3N (aa 1-144)): no binding
B8: HEF1 M2/M (aa 695-759) (other, human, UniProt Q14511 695-759, looked up)
chain: TTNSGVSAQDRQLLCFYYDQCETHFISLLNAIDALFSCVSSAQPPRIFVAHSKFVILSAHKLVFI
notes: range 695-759

binding result [5]: binds
binding result [6]: no binding
binding result [7]: no binding
B9: Smad4 (other, UniProt Q13485 1-552, looked up)
chain: MDNMSITNTPTSNDACLSIVHSLMCHRQGGESETFAKRAIESLVKKLKEKKDELDSLITAITTNGAHPSKCVTIQRTLDGRLQVAGRKGFPHVIYARLWRWPDLHKNELKHVKYCQYAFDLKCDSVCVNPYHYERVVSPGIDLSGLTLQSNAPSSMMVKDEYVHDFEGQPSLSTEGHSIQTIQHPPSNRASTETYSTPALLAPSESNATSTANFPNIPVASTSQPASILGGSHSEGLLQIASGPQPGQQQNGFTGQPATYHHNSTTTWTGSRTAPYTPNLPHHQNGHLQHHPPMPPHPGHYWPVHNELAFQPPISNHPAPEYWCSIAYFEMDVQVGETFKVPSSCPIVTVDGYVDPSGGDRFCLGQLSNVHRTEAIERARLHIGKGVQLECKGEGDVWVRCLSDHAVFVQSYYLDREAGRAPGDAVHKIYPSAYIKVFDLRQCHRQMQQQAATAQAAAAAQAAAVAGNIPGPGSVGGIAPAISLSAAAGIGVDDLRRLCILRMSFVKGWGPDYPRQSIKETPCWIEIHLHRALQLLDEVLHTMPIADPQPLD
notes: also called DPC4

binding result [8]: binds
B10: Smad1 (other, UniProt Q15797 1-465, looked up)
chain: MNVTSLFSFTSPAVKRLLGWKQGDEEEKWAEKAVDALVKKLKKKKGAMEELEKALSCPGQPSNCVTIPRSLDGRLQVSHRKGLPHVIYCRVWRWPDLQSHHELKPLECCEFPFGSKQKEVCINPYHYKRVESPVLPPVLVPRHSEYNPQHSLLAQFRNLGQNEPHMPLNATFPDSFQQPNSHPFPHSPNSSYPNSPGSSSSTYPHSPTSSDPGSPFQMPADTPPPAYLPPEDPMTQDGSQPMDTNMMAPPLPSEINRGDVQAVAYEEPKHWCSIVYYELNNRVGEAFHASSTSVLVDGFTDPSNNKNRFCLGLLSNVNRNSTIENTRRHIGKGVHLYYVGGEVYAECLSDSSIFVQSRNCNYHHGFHPTTVCKIPSGCSLKIFNNQEFAQLLAQSVNHGFETVYELTKMCTIRMSFVKGWGAEYHRQDVTSTPCWIEIHLHGPLQWLDKVLTQMGSPHNPISSVS
notes: also called Smad1 itself
